T1: FGFR2b on SNU-16 and MFM-223 cells (human, UniProt P21802 22-821)
T1 chain: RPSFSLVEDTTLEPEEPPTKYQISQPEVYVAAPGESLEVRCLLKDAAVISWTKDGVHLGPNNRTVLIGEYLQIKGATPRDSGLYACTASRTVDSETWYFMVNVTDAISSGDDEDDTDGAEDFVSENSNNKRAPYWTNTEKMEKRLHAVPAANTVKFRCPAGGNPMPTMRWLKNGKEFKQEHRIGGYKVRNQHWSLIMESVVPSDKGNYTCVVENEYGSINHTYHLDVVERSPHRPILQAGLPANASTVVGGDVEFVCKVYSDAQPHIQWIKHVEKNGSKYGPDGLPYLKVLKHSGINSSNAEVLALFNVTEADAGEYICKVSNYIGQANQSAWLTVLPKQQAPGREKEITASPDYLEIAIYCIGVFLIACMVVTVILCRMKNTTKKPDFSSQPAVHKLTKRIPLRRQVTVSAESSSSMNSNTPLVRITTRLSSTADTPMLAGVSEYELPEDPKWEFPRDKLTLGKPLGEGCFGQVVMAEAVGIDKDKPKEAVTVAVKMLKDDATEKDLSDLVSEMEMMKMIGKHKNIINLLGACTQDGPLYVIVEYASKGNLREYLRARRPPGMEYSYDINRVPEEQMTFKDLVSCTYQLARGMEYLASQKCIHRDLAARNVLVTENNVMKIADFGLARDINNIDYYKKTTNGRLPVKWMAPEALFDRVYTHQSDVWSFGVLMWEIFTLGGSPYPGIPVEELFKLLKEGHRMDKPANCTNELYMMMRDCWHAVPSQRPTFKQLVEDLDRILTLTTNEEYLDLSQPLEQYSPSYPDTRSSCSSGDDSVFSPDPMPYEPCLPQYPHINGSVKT

T2: hFGFR2b.mmh (human)
T2 construct: also called Human FGFR2b with C-terminal myc-myc-hexahistidine tag
T2 chain: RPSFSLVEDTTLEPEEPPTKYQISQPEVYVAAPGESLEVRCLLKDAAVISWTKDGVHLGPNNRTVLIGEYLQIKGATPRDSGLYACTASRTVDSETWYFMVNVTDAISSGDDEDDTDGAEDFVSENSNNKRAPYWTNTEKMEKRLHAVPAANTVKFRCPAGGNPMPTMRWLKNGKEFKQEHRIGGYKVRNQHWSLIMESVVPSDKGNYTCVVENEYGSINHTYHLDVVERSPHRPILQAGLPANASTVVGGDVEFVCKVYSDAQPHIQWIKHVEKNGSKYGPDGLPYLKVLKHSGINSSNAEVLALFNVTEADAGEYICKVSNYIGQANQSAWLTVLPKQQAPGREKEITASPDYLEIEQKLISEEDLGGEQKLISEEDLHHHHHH

B1: mAb1-tubulysin 1ALP (antibody, human IgG4 S228P, kappa, V domains shown)
VH: QVQLVESGGGVVQPGRSLRLSCAASGFTFSSYGMHWVRQAPGKGLEWVAVIWYDGSNKYYADSVKGRFTISRDNSKNTLYLQMNSLRAEDTAVYYCAREESSASGVDYWGQGTLVTVSS
VL: EIVLTQSPGTLSLSPGERATLSCRASQSVSTRYLAWYQQKRGQAPRLLIYGASSRATGIPDRFSGSGSGTDFTLTISRLEPEDFAVYYCQEYGSSSITFGQGTRLEIKR
modifications: deglycosylated; Q295 carries azido-PEG3-amine clicked to Tubulysin 1A-LP; DAR 2.1 per antibody
notes: also called Anti FGFR2 mAb1-PEG3-N3-Tubulysin 1A-LP
B2: mAb1 (antibody, human IgG4 S228P, kappa, V domains shown)
VH: B1 VH
VL: B1 VL
notes: also called anti-FGFR2 antibody mAb1; mAb1 (Unconjugated)
B3: mAb1-maytansinoid 1ALP (antibody, V domains shown)
VH: B1 VH
VL: B1 VL
modifications: maytansinoid 1ALP (mc-VC-PAB-NMe-C3-May) linker-payload conjugated; residues not stated in Example 5; DAR 2.5 per antibody
notes: it is written on the heavy chain only for want of a better place
B4: Comp1 (antibody, INN chains, looked up, V domains shown)
VH: QVQLVQSGAEVKKPGSSVKVSCKASGYIFTTYNVHWVRQAPGQGLEWIGSIYPDNGDTSYNQNFKGRATITADKSTSTAYMELSSLRSEDTAVYYCARGDFAYWGQGTLVTVSS
VL: DIQMTQSPSSLSASVGDRVTITCKASQGVSNDVAWYQQKPGKAPKLLIYSASYRYTGVPSRFSGSGSGTDFTFTISSLQPEDIATYYCQQHSTTPYTFGQGTKLEIK
B5: mAb2-tubulysin 1ALP (antibody, V domains shown)
VH: QVQLVESGGGVVQPGKSLRLSCAASGFTFSNYGMHWVRQTPVKGLEWVTLIWYDGSNKYYTDSVKGRFTISRDNSKNTLYLQMNSLRSEDTAVYYCAREGNWNYGHAFDIWGQGTMVTVSS
VL: DIQMTQSPSTLSASVGDRVTITCRASQNIGNWLAWYQQKPGKAPNLLIYKASTLESGVPSRFSGSGSGTEFTLTISSLQPDDFATYNCQQYNSYSPTFGQGTKLEIKR
modifications: deglycosylated; Q295 carries azido-PEG3-amine clicked to Tubulysin 1A-LP; DAR 2.1 per antibody
notes: also called Anti FGFR2 mAb2-PEG3-N3-Tubulysin 1A-LP
B6: mAb2 (antibody, V domains shown)
VH: B5 VH
VL: B5 VL
notes: also called anti-FGFR2 antibody mAb2; mAb2 (Unconjugated)
B7: mAb2-maytansinoid 1ALP (antibody, V domains shown)
VH: B5 VH
VL: B5 VL
modifications: maytansinoid 1ALP (mc-VC-PAB-NMe-C3-May) linker-payload conjugated; residues not stated in Example 5; DAR 1.9 per antibody
notes: it is written on the heavy chain only for want of a better place; also called FGFR2 maytansinoid ADC

Assays:
[1] = target: T1, FGFR2b on SNU-16 and MFM-223 cells; test: cell-based or functional assay
hFGFR2b.mmh [2] = target: T2, hFGFR2b.mmh; test: SPR (Biacore), ADC captured by anti-human Fc, hFGFR2b-MMH as analyte, 25 C
Method: (§1) The equilibrium dissociation constants (KD values) for hFGFR2b.mmh binding to anti-FGFR2 antibodies conjugated with Tubulysin (“tubulysin 1ALP”), Auristatin (“auristatin LP1”), or mc-VC-PAB-NMe-C3-May (“maytansinoid 1ALP”) were determined using a real-time surface plasmon resonance biosensor assay on a Biacore 2000 or a Biacore 4000 instrument. The Biacore sensor surface was derivatized by amine coupling with a monoclonal mouse anti-human Fc antibody (REGN2567 or Jackson Cat. No #109-005-098) to capture anti-FGFR2 ADC and parent unmodified antibodies expressed with human constant regions. Biacore binding studies were performed in HBS-EP running buffer (0.01M HEPES pH 7.4, 0.15M NaCl, 3 mM EDTA, 0.05% v/v Surfactant P20). Human FGFR2b and Human FGFR2c were prepared in-house expressing a C-terminal myc-myc-hexahistidine tag (hFGFR2b-MMH—SEQ ID NO: 57; hFGFR2c-MMH—SEQ ID NO: 58). […] Association of hFGFR2b-MMH or hFGFR2c-MMH to each of the captured ADCs and monoclonal antibodies was monitored for 4 minutes. Subsequently, dissociation was monitored for 10 minutes in HBS-EP running buffer. Anti-human Fc surface was regenerated by a brief injection of 20 mM H₃PO₄. All binding kinetic experiments were performed at 25° C. Kinetic association (kₐ) and dissociation (kd) rate constants were determined by fitting the real-time sensorgrams to a 1:1 binding model using Scrubber 2.0c curve fitting software. All sensorgrams were double referenced by subtracting buffer injection sensorgram signal from the corresponding analyte sensorgram, thereby removing artifacts caused by dissociation of the antibody from the capture surface. Binding dissociation equilibrium constants (KD) and dissociative half-lives (t½) were calculated from the kinetic rate constants as: […]

[3] = target: T1, FGFR2b on SNU-16 and MFM-223 cells; test: cell-based or functional assay
hFGFR2c.mmh = target: T3, hFGFR2c.mmh (human, UniProt P21802 22-377); test: SPR (Biacore), antibody captured by anti-human Fc, hFGFR2c-MMH as analyte, 25 C
T3 construct: also called Human FGFR2c with C-terminal myc-myc-hexahistidine tag
Method: The equilibrium dissociation constants (KD values) for hFGFR2b.mmh binding to anti-FGFR2 antibodies conjugated with Tubulysin (“tubulysin 1ALP”), Auristatin (“auristatin LP1”), or mc-VC-PAB-NMe-C3-May (“maytansinoid 1ALP”) were determined using a real-time surface plasmon resonance biosensor assay on a Biacore 2000 or a Biacore 4000 instrument. The Biacore sensor surface was derivatized by amine coupling with a monoclonal mouse anti-human Fc antibody (REGN2567 or Jackson Cat. No #109-005-098) to capture anti-FGFR2 ADC and parent unmodified antibodies expressed with human constant regions. Biacore binding studies were performed in HBS-EP running buffer (0.01M HEPES pH 7.4, 0.15M NaCl, 3 mM EDTA, 0.05% v/v Surfactant P20). […] Association of hFGFR2b-MMH or hFGFR2c-MMH to each of the captured ADCs and monoclonal antibodies was monitored for 4 minutes. Subsequently, dissociation was monitored for 10 minutes in HBS-EP running buffer. […] Kinetic association (kₐ) and dissociation (kd) rate constants were determined by fitting the real-time sensorgrams to a 1:1 binding model using Scrubber 2.0c curve fitting software. […] Binding dissociation equilibrium constants (KD) and dissociative half-lives (t½) were calculated from the kinetic rate constants as: […]

hFGFR2b.mmh [4] = target: T2, hFGFR2b.mmh; test: SPR (Biacore), antibody captured by anti-human Fc, hFGFR2b-MMH as analyte, 25 C
Method: as §1

Binder | IC50 (M), CellTiter-Glo cytotoxicity, MFM-223 cells, 6 days [1] | IC50 (M), CellTiter-Glo cytotoxicity, SNU-16 cells, 6 days [1] | Max % Kill, MFM-223 cells [1] | Max % Kill, SNU-16 cells [1] | Antigen Bound (RU) (hFGFR2b.mmh [2]) | t1/2 (hFGFR2b.mmh [2]) | IC50 (M), cytotoxicity, SNU-16 monoculture, 5 days (bystander assay) [3] | Max % Kill, SNU-16 monoculture (bystander assay) [3] | binding result (hFGFR2c.mmh) | Kd (hFGFR2b.mmh [4]) | koff (hFGFR2b.mmh [4]) | kon (hFGFR2b.mmh [4]) | t1/2 (hFGFR2b.mmh [4]) | Kd (hFGFR2b.mmh [2]) | Antigen Bound (RU) (hFGFR2c.mmh) | Antigen Bound (RU) (hFGFR2b.mmh [4])
B1 | 1.25e-10 M | 4.34e-11 M | 91.1% | 95.4% | 36.4 RU | 7.4 min | 6.69e-11 M | 97.1% | – | – | – | – | – | – | – | –
B2 | – | – | – | – | – | – | – | – | no binding (tested: 30 nM (highest concentration injected)) | 25 nM | 0.00104 s⁻¹ | 41700 M⁻¹ s⁻¹ | 11.1 min | – | – | –
B3 | 2.14e-10 M | 2.68e-10 M | 85.5% | 93.1% | 42.1 RU | 11.1 min | – | – | – | – | – | – | – | 41.8 nM | – | –
B4 | – | – | – | – | – | – | – | – | – | 60.8 nM | 0.00471 s⁻¹ | 77400 M⁻¹ s⁻¹ | 2.5 min | – | 0.6 RU | 68.3 RU
B5 | 6.36e-11 M | 3.7e-11 M | 90% | 95.3% | 32.7 RU | 9.8 min | 2.73e-11 M | 97.2% | – | – | – | – | – | – | – | –
B6 | – | – | – | – | – | – | – | – | – | 8.92 nM | 0.000447 s⁻¹ | 50100 M⁻¹ s⁻¹ | 25.8 min | – | – | –
B7 | 1.72e-10 M | 2.06e-10 M | 91.1% | 95% | 31.3 RU | 13.1 min | 6.45e-10 M | 94.8% | – | – | – | – | – | 12.8 nM | – | –

From patent US20220162323A1 (Regeneron, published 2022)
